System: MS2 coat protein
Assay: apparent KD of MS2 coat protein; designed switch direction (-1 OFF switch, 1 ON switch): -1; higher = weaker reporter binding
Summary of the method: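 For each design, the apparent KD is the median over clusters of curves fitted to normalised cluster fluorescence. Clusters held RNA switches with common flanks, transcribed on Illumina chips by stalled E. coli RNA polymerase. These were titrated with SNAP-549-labelled MS2 coat protein, doubling from 0.7 or 1.5 nM to 3 µM, without input, with 200 uM small-molecule ligand, or with an oligonucleotide input.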

[1] = input ligand: microRNA oligo, concentration not stated
[2] = Eterna round: R95, input ligand: FMN 200 uM
[3] = Eterna round: R95, input ligand: microRNA oligo, concentration not stated
[4] = Eterna round: R95, input ligand: none

Sequence | apparent KD of MS2 coat protein (input ligand: FMN 200 uM) | apparent KD of MS2 coat protein [1] | apparent KD of MS2 coat protein (input ligand: none) | apparent KD of MS2 coat protein [2] | apparent KD of MS2 coat protein [3] | apparent KD of MS2 coat protein [4]
AACGAUACGCUCAUAAGAACAUGAGGAUCACCCAUGUGUGGUGAGGAUAUCCACCCAGAGGGAAAGGAGAAGGUACCAGUGGAC [Orsoenbere] (Eterna round: R96, puzzle: Exclusion NG 3) | 222 nM | 143 nM | 303 nM |  |  | 
GUGCCGCGAGGAUAUACAGACGGGUCCAGGGCGUGUCUCGGACUUGAGGAUCACCCAAGUAGAAGGCGUCUCAG [salish99_ex2_r4_615] (Eterna round: R97, puzzle: Exclusion 2) | 77.6 nM |  | 26.7 nM |  |  | 
GUUCGACAUGAGGAUCACCCAUGUGAGGAUAUACGAUUAGCUGCUAGGUAGUUAGUAUGUAGAAGGUGCAUGAA [EX1 #73] (Eterna round: R97, puzzle: Exclusion 1) | 55.2 nM |  | 41.7 nM |  |  | 
GAAAAGGUAGGAUAUACUAAAAAAAAGGGUAGAAAAAAAACACAUGAGGAUCACCCAUGUAGAAGGACCAAAAG [salish99_ex2_r3_058] (puzzle: Exclusion 2) |  |  |  | 48.2 nM | 31.8 nM | 20.8 nM
UUUUAACAUGAGGAUCACCCAUGUGAGGAUAUCGAAAUUUAUAUUUAUAUUAAUAAAUCGAGAAGGCACAUUUU [JMF 76] (puzzle: Exclusion 1) |  |  |  |  | 119 nM | 
CCGCAAAUUGAGGAUAUCGUAUCGGAUACGAUACGAGAAGGCGAAACAUGAGGAUCACCCAUGUGUCCUAGCGG [Fiskers Ex 6 - 33] (puzzle: Exclusion 6) |  |  |  | 18.2 nM | 12 nM | 14.4 nM
CCUCGACGGUAGGAUAUCGUCAAACUAUUGUGAUGAGAAGGACUGACAUGAGGAUCACCCAUGUUAACGUGAUA [Exclusion 6 - 7:b] (puzzle: Exclusion 6) |  |  |  |  | 17.1 nM | 
UCAAAGCUAGGAUAUACAUGAGGAUCACCCAUGUUAUCACCCAUCGGGUCUUGCUUUUGUAGAAGGAGCAAUAA [Xeinso] (puzzle: Exclusion 3) |  |  |  |  | 25.6 nM | 
GAAAAACAUGAGGAUCACCCAUGUAAGGAUAUGCUGAAAAAACACUGGAAACAGUGCAGCAGAAGGUACAAAAG [Mat - Exclusion 1 - Eli mod - D100] (Eterna round: R96, puzzle: Exclusion 1) |  | 47.6 nM |  |  |  | 
CACCGUUACUGAGGAUAUGGCACAUGAGGAUCACCCAUGUAAUAAAUGAGAAUUUCGGAUGUAUUCCAGAAGGCAGUAACCGGC [Ostricism 69 - Jieux - Exclusion NG 2] (Eterna round: R96, puzzle: Exclusion NG 2) | 30 nM | 23.3 nM | 27.1 nM |  |  | 
GAGAAACAUGAGGAUCACCCAUGUAAGGAUAUGGCGAGAGCUGGAGUACUAGCGCCGUUCAGAAGGUACAUGAG [Eternabot (L2) Solution 27] (Eterna round: R97, puzzle: Exclusion 1) | 218 nM |  | 95.9 nM |  |  | 
CAAUUCCGAGGAUAUACAUGAGGAUCACCCAUGUCGGGCCUCAGCGUUUAGCGCUUAAGUAGAAGGUGGGUUUC [JL Riri mod 5] (puzzle: Exclusion 3) |  |  |  |  | 32.5 nM | 
AAUACAAGCUAUUGAUCCCACAUGAGGAUCACCCAUGUAGCUGGCGGUGACACCUCCAUUACGAUAGCUCGUCUUAU [Sensor-V1 #56] (Eterna round: R97, puzzle: Sensor, turn-off variant 1) | 796 nM |  | 1670 nM |  |  | 
CUCGUAUUAUACAUGAGGAUCACCCAUGUGGUCACCACUCACGAGGAUAUCCCGGGAAACCGAACGGAGAAGGUGUAGAGUCAU [Eternabot solution 44] (Eterna round: R96, puzzle: Exclusion NG 3) | 164 nM | 163 nM | 196 nM |  |  | 
CGUGACUCAGGAUAUGGAUUAUAUCACAUGAGGAUCACCCAUGUCCAGCGAAAGCUGGAGUCAGAAGGGAGUCACG [Fiskers Ex 5 - 48] (puzzle: Exclusion 5) |  |  |  | 34.9 nM | 70.9 nM | 85.4 nM
ACUUACUGAGGAUAUACUUAGAUUUACAUGAGGAUCACCCAUGUUCCUCUAUGUAUAUAUGUAGAAGGCAGAAGAA [JL-ex5-4.35 Malcolm mod] (Eterna round: R97, puzzle: Exclusion 5) | 120 nM |  | 23.7 nM |  |  | 
UCAAUUUUGACAGGAUAUAGUUUUUGUUUUUCUCUAGAAGGGUCUUUGCACAUGAGGAUCACCCAUGUUCUUUUUAUUUGCAUU [JR_ExcNG1_Sub015] (Eterna round: R96, puzzle: Exclusion NG 1) | 62.2 nM | 42.3 nM | 63.3 nM |  |  | 

Sequence | apparent KD of MS2 coat protein (input ligand: FMN 200 uM) | apparent KD of MS2 coat protein [1] | apparent KD of MS2 coat protein (input ligand: none) | apparent KD of MS2 coat protein [2] | apparent KD of MS2 coat protein [3] | apparent KD of MS2 coat protein [4]
UUGUACAGAGGAUAUACAUGAGGAUCACCCAUGUGUUUCAGCUAGGAGACUAGCGAAAGUAGAAGGCUGUACUC [salish99_ex3_r4_015] (Eterna round: R97, puzzle: Exclusion 3) | 23.9 nM |  | 11.1 nM |  |  | 
AGUUGGCGAGGAUAUACAUGAGGAUCACCCAUGUGAAAUAGAAGAGUGAGGAAGAAAAGUAGAAGGCGCUGACA [Mat - Exclusion 3 - Mod of Salish D40] (puzzle: Exclusion 3) |  |  |  | 134 nM | 69 nM | 107 nM
CACGAACAUGAGGAUCACCCAUGUCAGGAUAUGAGGCUUUGCGUGCCGCAUUUUGGUCUUAGAAGGGACAGCCG [Eternabot (L2) Solution 49] (Eterna round: R97, puzzle: Exclusion 1) | 22.3 nM |  | 23 nM |  |  | 
AGUGCGUAUGUGAGGAUAUGCUGGUCCUUGGAUCGGCAGAAGGCACAUGAGGAUCACCCAUGUGGUGUCGUACG [salish99_Bmod_ex4_077] (puzzle: Brourd's mod of Exclusion 4) |  |  |  | 203 nM | 58.6 nM | 89.2 nM
GCCAGAGCAGGAUAUUCAAUAUUCCACAUGAGGAUCACCCAUGUCCUGCGAAAGCAGGAGGGAGAAGGGCUCUGGC [Mat - Exclusion 5 - Eli mod - D91] (puzzle: Exclusion 5) |  |  |  |  | 56.2 nM | 
UAGUUAGCGUGUGGCACAUACAUGAGGAUCACCCAUGUUAGCUUAUAUAUUGCUCGUCUUAUAACAACACUUAACUU [Mod JX-Electric-eye6] (Eterna round: R97, puzzle: Sensor, turn-off variant 1) | 18.7 nM |  | 19 nM |  |  | 
CCACGACAUGAGGAUCACCCAUGUGAGGAUAUGGCCAGUAUGGCGUGAGCUGAAUCAAUCAGAAGGCGCGUGGG [salish99_ex1_r4_056] (Eterna round: R97, puzzle: Exclusion 1) | 276 nM |  | 339 nM |  |  | 
GUACUGAAGCUUUGCUUUAGUCGUACAUGAGGAUCACCCAUGUAGGAUAUGGUAGGCUUUGCUUACUAGAAGGAUAGAGUGAUC [JL EXNG3 1.27] (Eterna round: R96, puzzle: Exclusion NG 3) | 81.7 nM | 31.7 nM | 119 nM |  |  | 
UUACUCCUCGCUUGGUCACACAUGAGGAUCACCCAUGUGGGAUGCCAUGGCGUCUCAUCAAGCUUCUUUUGCUCGUG [Eternabot (Original) Solution 26] (Eterna round: R97, puzzle: Sensor, turn-off variant 1) | 20.9 nM |  | 23.8 nM |  |  | 
AACCUACAUGAGGAUCACCCAUGUGAGGAUAUAUUGGUAUUUAUAUUAUUUUUUAGAGGUAGAAGGCGCGUGAU [JR_Exc1_Sub021] (Eterna round: R97, puzzle: Exclusion 1) | 14.2 nM |  | 14.2 nM |  |  | 
GAAAAGGCAGAGGAUAUUUCAGGUCAAAGCUGCAAAGAAGGCUGCACAUGAGGAUCACCCAUGUGGUCUUAAAA [Mod of Quesina 6 - Jieux - Exclusion 6] (Eterna round: R97, puzzle: Exclusion 6) | 150 nM |  | 22.6 nM |  |  | 
UCUAUGAUGCGAGGAUAUCGACCAUUCCUCUUUACAUGAGGAUCACCCAUGUUCGUACGCUACAACGAGAAGGCGCACUAAGUU [JR_ExcNG2_Sub060] (Eterna round: R96, puzzle: Exclusion NG 2) | 292 nM | 131 nM | 157 nM |  |  | 
AAAUAGCAAGUGUGAUCCUACAUGAGGAUCACCCAUGUGUUCGUCUUAUUUGAAGACAACACAAAAGUGUUGUCUUA [Omei Mir OFFv1 B2] (Eterna round: R97, puzzle: Sensor, turn-off variant 1) | 32.9 nM |  | 24.6 nM |  |  | 
UUAUUACAAGCAAGAUCCCACAUGAGGAUCACCCAUGUGCUCGUCUUAUAAGGUACAGUGACGAAAGUCACAGUACC [Sensor 3, v1 - 0] (Eterna round: R96, puzzle: Sensor v3, turn-off variant 1) | 23.1 nM | 369 nM | 25.9 nM |  |  | 
GUGAAACAUGAGGAUCACCCAUGUGAGGAUAUGUUUUAGUACUGGAGACAGUACAUCUAUAGAAGGCACAAUGG [Mat - Mod of JL D75] (puzzle: Exclusion 1) |  |  |  |  | 54.7 nM | 
GACUUCUGAGGAUAUACAUAGAUUUACAUGAGGAUCACCCAUGUUCCUCUAUGUAUAAAUGUAGAAGGCAGAAGAU [Mat - Exclusion 5 - JL Mod - D66] (Eterna round: R97, puzzle: Exclusion 5) | 73.8 nM |  | 13.2 nM |  |  | 
CCUAAACAUGAGGAUCACCCAUGUGAGGAUAUGAUGCGAAUAAAGAAAGAAGAAAGCAUCAGAAGGCACAUAGG (Eterna round: R96, puzzle: Exclusion 1) |  | 131 nM |  |  |  | 

— the supplement of paper PMC9170038
